Experimental data as given in the nanobody polyreactivity screen of Harvey et al. (2022).

Assay: yeast display, Sf9 membrane polyspecificity reagent, FACS + sequencing; frameworks hold sequencing errors
How it was run: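 Galactose induction of a Saccharomyces cerevisiae BJ5465 synthetic nanobody display library ran 36–48 hours. The cells were then stained for 1 hour at 4 °C with 10% biotinylated, detergent-solubilized Sf9 membrane reagent, pulled down on streptavidin microbeads and FACS-sorted into low and high (top ~1%) gates on expression and reagent-binding fluorescence. Labels for polyreactivity follow the gate of origin.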

Row | Sequence | polyreactivity (PSR sort gate)
1 | QVQLVESGGGLVQAGGSLRLSCAASGSTFRRYAMGWNRKAPGKERELVAAISGRGGSTSYADSVTGRFTISRDNAKNTVFLQMNSLKPEETAVYYCAADDKYFYPGNGYWGQGTQVTVSS | high polyreactivity
2 | QVQLVESGGGLVQAGGSLRLSCAASGSTFRRYAMGWYRPAPGKERELVAVITSRGGSTYYADSVKGRFTISRDNAKNTVYLQMNSLKPEDTAVYYCAAGYTSGYWANHYTPRFYYWGQGTQVTVSS | high polyreactivity
3 | QVQLVESGGGLVQAGGSLRLSCAASGSTFRRYAMGWYRQAPGKERELVASISWSGGSTSYADSVKGRFTISRDTAKNTVYLQMNSLKPEDTAVYYCAAVRYYWGEYYARYAYEYWGQGTQVTVSS | high polyreactivity
4 | QVQLVESGGGLVQAGGSLRLSCAASGSTFRRYAMGWYRQAPGNERELVAAITGSGGRTYYADSVKGRFTISRDNAKNTVYLQMNSLKPEDTAVYYCAARGTHSRRRYYYWGQGTQVTVSS | high polyreactivity
5 | QVQLVESGGGLVQAGGSLRLSCAASGSTFRRYTMGWYRQAPGKERELVAAISSGGSTYYADSVKGRFTISLDNAKNTVYLQMNSLKPEDTAVYYCAAKNYPLTRYWRYDYSEYYYWGQGTQVTVSS | high polyreactivity
6 | QVQLVESGGGLVQAGGSLRLSCAASGSTFRSNAMGWYRQAPGKEGELVAAISSRVGTTNYADSVKGRFTISRDNAKNTVYLQMNSLKPEDTAVYYCAAQGWRYYRTVVPMDYWGQGTQVTVSS | low polyreactivity
7 | QVQLVESGGGLVQAGGSLRLSCAASGSTFRSNAMGWYRQAPGKERELVASITSRGGSTYYADSVKGRFTISRDNAKNTVYLQMNSLKPEDTAVYYCATARSYLTYSYHYDYWGQGTQVTVSS | low polyreactivity
8 | QVQLVESGGGLVQAGGSLRLSCAASGSTFRSNAMGWYRQAPGKESELVAAITRRGSTYYADSVKGRFTISRDNAKNTVYLQMNSVKPEDTAVYYCAARVPGYASGASGYSSYRYEYWGQGTQVTVSS | high polyreactivity
9 | QVQLVESGGGLVQAGGSLRLSCAASGSTFRSYAMGGYIQAPGKERELVAAISGRGGSTYYADSVKGRFTISRDNAKNPVYLQMNSLKPEDTAVYYCNAVPGVSYWGQGLDYWGQGTQVTVSS | low polyreactivity
10 | QVQLVESGGGLVQAGGSLRLSCAASGSTFRSYAMGWYRQAPGKERELVAAISRGGSTYYADSVKGRFTISRDNAKNTVYLQMNSLKPEDTAVYYCAARPPRGSWQYDYWGQGTQVTVSS | high polyreactivity
11 | QVQLVESGGGLVQAGGSLRLSCAASGSTFRSYAMGWYRQAPGKERELVAAISSTGGSTYYADSVKCRFTISRDTAKNTVYFQMNSLKPVDTAVYYCAADFLYYEYDYWGQGTQVTVSS | low polyreactivity
12 | QVQLVESGGGLVQAGGSLRLSCAASGSTFRSYAMGWYRQAPWKERELVAAISSSGGSTYYADSVKGRFTISRDNANNTVYLQMNSLKPEDTAVYICAADFLYYEYDYWGQGTQVTVSS | low polyreactivity
13 | QVQLVESGGGLVQAGGSLRLSCAASGSTFRSYTMGWYRQAPGKERELVAAISGRGGSTYYADSVKGRFTISRDNAKNTVYLQMNSLKPEDTAVYYCAAPYWKRVAWGFDYWGQGTQVTVSS | high polyreactivity
14 | QVQLVESGGGLVQAGGSLRLSCAASGSTFRSYTRGWYRQAPGKERELVAAIRKSGVRTYYADSVKGRFTISRDNAKNTVYLQMNSLKPEDTAVYYCNRPKWYDGDYWGQGTEVTVSS | high polyreactivity
15 | QVQLVESGGGLVQAGGSLRLSCAASGSTFRSYVMGWYRQAPGKERELVARITFNGGGTSYADSVKGRFTISRDTAKNTVYLQMNSLKPEDTAVYYCAARGYGWPKLFNYWGQGTQVTVSS | high polyreactivity
16 | QVQLVESGGGLVQAGGSLRLSCAASGSTFRTNVMGWYRQAPGKEREVVAAITKRGSITYYADSVKGRFTISRDNAKNTVYFQMNTLKPEDTAVYYCAARKVAVRGYAYWGQGTQVTVSS | high polyreactivity
17 | QVQLVESGGGLVQAGGSLRLSCAASGSTFRVNTMGWYRQAPGKERELVAAISWSTGTSTYADSVKGRFTISRDNAKNTVYLQMNSLKPEDTAVYYCAAGQPAWGVEYDSWGQGTQVTVSS | low polyreactivity
18 | QVQLVESGGGLVQAGGSLRLSCAASGSTFRVYAMGWYRQAPGKERELVAGISWRGGSTSYADSVKGRFTISRDNAKNTVYLQMNSLKPEDTAVYYCAVQRSYVGPRQYNYWGQGTQVTVSS | high polyreactivity
19 | QVQLVESGGGLVQAGGSLRLSCAASGSTFRVYAMGWYRQAPGTERELVATINVSGGSTYYADSVKGRFTISRDNAKNTVYLQMNSLKPEDTAVYYCAKEDGAYGYPFDYWGQGTQVTVSS | low polyreactivity
20 | QVQLVESGGGLVQAGGSLRLSCAASGSTFRVYAMGWYRQATGKERELVAAIRWRGVTTYADSVKGRFTISRDNAKNTVYLQMNSLKPEDTAVYYCARDVNYPGSEGDYWGQGTQVTVSS | low polyreactivity
21 | QVQLVESGGGLVQAGGSLRLSCAASGSTFRWYAMGWYRQAPGKERELVAAISGSGGSTYYADSVKGRFTISRDNAKKTVYLQMNSLKPEDTAVYYCNKRYFTYLGEHTVGYWGQGTQVTVSS | high polyreactivity
22 | QVQLVESGGGLVQAGGSLRLSCAASGSTFRYNAMGWYRQAPGKERELVAAINRGGGTDYADSVKGRFTISRDNAKNTVYLQMNSLKPEDTAVYYCAAAYLRYVSTQYHYDDWGQGTQVTVSS | low polyreactivity

Row | Sequence | polyreactivity (PSR sort gate)
23 | QVQLVESGGGLVQAGGSLRLSCAASGSTFRYNAMGWYRQAPGKERELVAAITSSGGRTYYADSVKGRFTISRDNAKKTVYLQRISLKPEDTAVYYCDAYAYYHTGDDYWGQGTQVTVSS | high polyreactivity
24 | QVQLVESGGGLVQAGGSLRLSCAASGSTFRYNAMGWYRQAPGKERELVAAITSSGSRTYYADSVKGRFTISRDNAKNTVYLQMNSLKPEDTAVYYCAAYGYYTKVTKYDYWGQGTQVNVSS | high polyreactivity
25 | QVQLVESGGGLVQAGGSLRLSCAASGSTFRYNAMGWYRQAPGKERELVAGISYRGGTTYYADSVKGRFTISRDNAKNTVYLQMNSLKPEDTAVYYCAADSRAKRYYWGQGTQVTVSS | high polyreactivity
26 | QVQLVESGGGLVQAGGSLRLSCAASGSTFRYNAMGWYRQAPGKERELVATITGSGGSTYYADSVKGRFTISRDNAKNTVYLQMNSLKPEDTAVYYCTARYVYGAYSSLSAHYYWGQGTQVTVSS | high polyreactivity
27 | QVQLVESGGGLVQAGGSLRLSCAASGSTFRYNVMGWYRQAPGKERELVAAISSGGSTYYADSVKGRFTISRDNAKNTVYLQMNSLKPEDTAVYYCAAPRYLFFVGLGMDYWGQGTQVTVSS | high polyreactivity
28 | QVQLVESGGGLVQAGGSLRLSCAASGSTFRYYAMGWYRQAPGKEREFVATINKSGGSTYYADSVKGRFTISRDNEKNTVYLQMNSLKPEDTAVYYGATRKSGGYRYDYWGQGTQVTVSS | high polyreactivity
29 | QVQLVESGGGLVQAGGSLRLSCAASGSTFRYYAMGWYRQAPGKERELVAAISGSGGRTYYADSVKGRFTISRDNAKNTVYLQMNSLKPEYTAVYYCNTRGRSTDYDYWGQGTQVTVSS | high polyreactivity
30 | QVQLVESGGGLVQAGGSLRLSCAASGSTFRYYAMGWYRQAPGKERELVAAISGSGGRTYYADSVKGRFTISRDNAKNTVYLQMYSLKPEDTAVYYCAASRYQFYWGQGTQVTVSS | high polyreactivity
31 | QVQLVESGGGLVQAGGSLRLSCAASGSTFRYYAMGWYRQAPGKERELVAAISKSGGRTYYADSVKGRFTISRDNAKNTVYLEMNSLKPEDTAVYYCAADCVARYQKGQYDYWGQGTQVTVSS | high polyreactivity
32 | QVQLVESGGGLVQAGGSLRLSCAASGSTFRYYAMGWYRQAPGKERELVAAISSAGTTYYADSVKGRFTISRDNAKNTVYLQMNSLNPEETAVYYCAAKYSYYTYAGDGGLFSWSYGYWGQGTQVTVSS | low polyreactivity
33 | QVQLVESGGGLVQAGGSLRLSCAASGSTFRYYAMGWYRQAPGKERELVAAITYRATSTYYADSVEGRFTISRDNAKNTVYLQMNSLKPEYTAVYYCAAYSTYSRSDYWGQGTQVTVSS | high polyreactivity
34 | QVQLVESGGGLVQAGGSLRLSCAASGSTFRYYAMGWYRQAPGKERELVAANTYRATSTYYADSVKGRFTISRDNAKNTVYLQMNSLKPEDTAVYYCAAYSTYSRYDYWGQGTQVTVSS | high polyreactivity
35 | QVQLVESGGGLVQAGGSLRLSCAASGSTFRYYAMGWYRQAPGKERELVAGISSSGGRTYYADSVKGRFTISRDNAKNTVYLQMNSLKPEDTAVYYCAAVRSSWSYYYWGQGTQVTVSS | high polyreactivity
36 | QVQLVESGGGLVQAGGSLRLSCAASGSTFRYYAMGWYRQEPGKERELVASITRGASTNYADSVKGRFTISRDNAKNTVYIQMNSLKPEDTAVYYCAADNYWHTFGGTDLRDDYWGQGTQVTVSS | low polyreactivity
37 | QVQLVESGGGLVQAGGSLRLSCAASGSTFRYYAMGWYSQAPGKERELVASISSGGSTNYADSVKGRFTISRDNAKNTVYLQMNSLKPEDTAVYYCNADSWTVNRRYYYYRYEYWGQGTQVTVSS | low polyreactivity
38 | QVQLVESGGGLVQAGGSLRLSCAASGSTFRYYDMGWYRQAPGKERELVADISSGGSTYYADSVKGRFTISRDNAKNTVYLQMNSLKPEDTAVYYCAAAYLSWLFRYDYWGQGTQVTVSS | high polyreactivity
39 | QVQLVESGGGLVQAGGSLRLSCAASGSTFRYYTMGWYRQAPGKERELVASISRSGSTSYADSVKGRFTISRDNAKNTVYLQMNSLKPEDSAVYYCAGESYFGAYAGYDYWGQGTQVTVSS | low polyreactivity
40 | QVQLVESGGGLVQAGGSLRLSCAASGSTFRYYVMGWYRQAPRKERELVAGISYRGGTTYYADSVKGRFSISRDNAKNTVYLQMNSLKPEDTAVYYCAADSTPYVLSGNYDYWGQGPQVTVSS | low polyreactivity
41 | QVQLVESGGGLVQAGGSLRLSCAASGSTFSANAMGWYRQAPGKERELVAAITYRGGNTYYADSVKGRFTISRDNAKNTVYLQMNSLKPEDTAVYYCNRDLRVRYRRMKYGYWGQGTQVTVSS | low polyreactivity
42 | QVQLVESGGGLVQAGGSLRLSCAASGSTFSANAMGWYRQAPGKERELVASISRGGGSTYYADSVKGRFTISRDTAKNTVYLQMNSLKPDDTAVYYCAAVYYRRISQGDTQTYYQYNYWGQVTQVTVSS | high polyreactivity
43 | QVQLVESGGGLVQAGGSLRLSCAASGSTFSANAMGWYRQAPGKERELVASISRRGGSTYYADSVKGRFTISRDYAKNTVYLQMNSLKPEDTAVYYCNKRIARQGSPSEYGRSQIGYYYWGQGTQVTVSS | high polyreactivity
